Consider one molecule from US20140079717A1, “Compositions and Methods to Prevent Cell Transformation and Cancer Metastasis” (CORNELL UNIVERSITY, priority 2011, published 2014).

A short description of the experiment: In vitro liposome fractionation assay. Type of experiment: binding. As to conditions: 5 μg protein, 15 minute incubation, centrifugation, SDS-PAGE. The procedure: FIG. 51. Recombinant tTG can associate with lipid vesicles lacking any protein content. Synthetic liposomes were prepared by extrusion and then equal amounts of this preparation were combined with either 5 μg recombinant tTG (tTG WT) or 5 μg bovine serum albumin (BSA). After a 15 minute incubation, the liposomes were pelleted by centrifugation, and the resulting supernatant (Sup) and liposome (Pellet) fractions were resolved by SDS-PAGE. The gel was then stained with Quick Blue to detect the proteins. A lane containing recombinant tTG (Rec. tTG WT) was included as a standard.
To obtain the results depicted in FIG. 51, the following procedures were used. In vitro liposome fractionation assays—Synthetic liposomes were prepared from a lipid mixture containing 35% phosphatidylethanolamine, 25% phosphatidylserine, 5% phosphatidylinositol, and 35% cholesterol re-suspended in TBSM buffer (20 mM Tris, pH 7.5, 150 mM NaCl, and 2 mM MgCl2). The lipids were extruded through an 8 micron filter, pelleted by centrifugation at 13,000 rpm for 15 minutes, and re-suspended in TBSM buffer. Equal amounts of the lipid preparation were then incubated with either recombinant wild-type tTG or BSA for 15 minutes, followed by centrifugation at 13,000 rpm for 10 minutes at room temperature. […]

B1: tTG WT: purified recombinant wild-type tissue transglutaminase (protein, UniProt P21980 2-687, looked up)
Protein-glutamine …: AEELVLERCDLELETNGRDHHTADLCREKLVVRRGQPFWLTLHFEGRNYEASVDSLTFSVVTGPAPSQEAGTKARFPLRDAVEEGDWTATVVDQQDCTLSLQLTTPANAPIGLYRLSLEASTGYQGSSFVLGHFILLFNAWCPADAVYLDSEEERQEYVLTQQGFIYQGSAKFIKNIPWNFGQFEDGILDICLILLDVNPKFLKNAGRDCSRRSSPVYVGRVVSGMVNCNDDQGVLLGRWDNNYGDGVSPMSWIGSVDILRRWKNHGCQRVKYGQCWVFAAVACTVLRCLGIPTRVVTNYNSAHDQNSNLLIEYFRNEFGEIQGDKSEMIWNFHCWVESWMTRPDLQPGYEGWQALDPTPQEKSEGTYCCGPVPVRAIKEGDLSTKYDAPFVFAEVNADVVDWIQQDDGSVHKSINRSLIVGLKISTKSVGRDEREDITHTYKYPEGSSEEREAFTRANHLNKLAEKEETGMAMRIRVGQSMNMGSDFDVFAHITNNTAEEYVCRLLLCARTVSYNGILGPECGTKYLLNLNLEPFSEKSVPLCILYEKYRDCLTESNLIKVRALLVEPVINSYLLAERDLYLENPEIKIRILGEPKQKRKLVAEVSLQNPLPVALEGCTFTVEGAGLTEEQKTVEIPDPVEAGEEVKVRMDLLPLHMGLHKLVVNFESDKLKAVKGFRNVIIGPA
Regarding B1, the “protein pelleted with synthetic liposomes” value was “nearly all”.
